In the RNAGym collection of RNA variant scans (doi:10.1073/pnas.2313332121):

B1: TPR t1 (parent)
chain: GACCAAUCUGCCCUCAGAGCUCGAGAACAUCUUCGGAUGCAGAGGAGGCAGGCUUCGGUGGCGCGAUAGCGCCAACGUCCUCAACCUCCAAUGCAUCCCACCACAUGAUGAUGCCUGAAGAGCCUUGGUUUUUUG

Variants of: B1
Experiment: polymerase ribozyme fitness, log enrichment relative to wild type (log ratio); higher = more active; in vitro selection for triplet polymerase activity
Outline: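 A single round of triplicate in vitro selection, including frozen incubation at −7 °C, was applied to PCR-built, transcribed mutant libraries of each subunit of a heterodimeric triplet polymerase ribozyme. Illumina sequencing of input and output libraries retained genotypes with ≥10 input reads and ≥1 read per output. Fitness is the base-2 logarithm of genotype enrichment divided by wild-type enrichment, from inverse-variance-weighted replicate averages.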

Question: For GACCAAUCUGCCCUCAGAGCUCGGGGACAUCUUCGGAUGCAGAGGAGGCAGGCUUCGGUGGCGCGAUAGCGCCAACGUCCUCAACCUCCCAUGCAUCCCACCACAUGAUGAUGCUUGAAGAGCCUUGGUUUUUUG [A24G A26G A90C C115U], which “polymerase ribozyme fitness (log ratio)” value is on record?
Answer: The value was -2.12.

Question: Which “polymerase ribozyme fitness (log ratio)” value does the source give for GACCAAUCUGCCCUCAGAGCUCGAGAACAUCUUCGGAUGCAGAGGAGGUAGGCUUCGGUGGCGCGAUAGCGCCAACGUCCUCAACCUCCAAUACAUCCCACCACAUGAUGAUGCCUGAAGAGCCUUGGUUUUUUG [C49U G93A] here?
Answer: The value was -1.33.

Question: Which “polymerase ribozyme fitness (log ratio)” value does the source give for GACCAAUCUGCCCUCAGAGCUCGAGAAGAUCUUCGGAUGCAGAGGAGGCUGGCUUCGGUGGCGCGAUAGCGCCAACGUCCUCAACCUCCAAUGCAUCCCACCACAUGAUGAUGCCUGAAGAGCCUUGGUUUUUUG [C28G A50U] here?
Answer: The value was -4.17.

Question: For GACCAAGCUGCCCUCAGAGCUCGAGAACAUCUUCGGAUGCAGAGGAGGUAGGCUUUGGUGGCGCGAUAGCGCCAACGCCCUCAACCUCCAAUGUAUCCCACCACAUGAUGCUGCCUGAAGAGCCUUGGUUUUUUG [U7G C49U C56U U78C C94U A111C], which “polymerase ribozyme fitness (log ratio)” value is on record?
Answer: Its value is -0.959.

Question: For GACCAAUCUGCCCUCAGAGCUCGAGAACAUCUUCGGAUGCAGAGGAGGCAGGCUUCGGUGGCGCGAUUGCGCCAACGUCCUCAACCUCCAAUGCAUCCCACCACAUGAUGAUGCCUGAAGUGCCUUGGUUUUUUG [A68U A121U], which “polymerase ribozyme fitness (log ratio)” value is on record?
Answer: Its value is -6.36.

Question: With GACCAAUCUGCCCUCAGAGCUCGAGAACAUCUUCGGAUGCAGAGGAGGUAGGCUUCGGUGGCGCGAUAGCGCCAAGGUCCUCAACCUCCAAUGCAUCCCACCACAUGAUGAUGCCUGAAGAGCCUUGGUUUUUUG [C49U C76G] as the variant, how does the “polymerase ribozyme fitness (log ratio)” value read?
Answer: The value was -0.454.

Question: Which “polymerase ribozyme fitness (log ratio)” value does the source give for GACCAGUCUGCCCUCAGAGCUCGAGAACAUAUUCGGAUGCAGAGGAGGCAGGCUUCGGUGGCGUGAUAGCGCCAACGUCCUCAACCUCGAAUGCAUCCCACCACAUGAUGAUGCCUGAAGAGGCUUGGUUUUUUG [A6G C31A C64U C89G C123G] here?
Answer: Its value is -6.4.

Question: Which “polymerase ribozyme fitness (log ratio)” value does the source give for GACCAAUCUGGCCUCAGAGCUCGAGAACAUCUUGGGAUGCAGAGGAGGUAGGCUUCGGUGGCGCGAUAGCGCCAACGUCCUCAACCUCCAAUGCAUCCCACCACACGAUGAUGCGUGAAGAGCGUUGGUUUUUUG [C11G C34G C49U U106C C115G C124G] here?
Answer: The value was -6.56.

Question: Which “polymerase ribozyme fitness (log ratio)” value does the source give for GACCAAUCUGCCCUCAGAGUUCGAGAACAUCUUCGGAUGCAGAGGAGGCAGGCUUCGGUGGCGCGAUAGCGCCAACGUCCUCAACCUCCAAUGCGUCCCACCAAAUGACGAUGUCUGAAGAGCAUUGGUUUUUUG [C20U A95G C104A U109C C114U C124A] here?
Answer: The value was -3.03.

Question: For GACCAAUCUGCCGUAAGAGCUCGAGAACAUCUUCGGAUGCAGAGGAGGCAGGCUUCGGUGGCGCGAUAGCGCCAACGUCCUCAACCUCCAAUGCAUCCCACCACAAGAUGAUGCCUGAAGAGACUUGGUUUUUUG [C13G C15A U106A C123A], which “polymerase ribozyme fitness (log ratio)” value is on record?
Answer: The value was -1.05.

Question: Which “polymerase ribozyme fitness (log ratio)” value does the source give for GACCAAUCUGCCCUCAGAGCUCGAGAACAUCUUCGGAUGCAUAGGAGGCAGGCUUCUGUGGCGCGAUAGCGCCAACGUCCUCAACCUCCAAUGCAUCCCACCACAUGAUGAUGCCUGAAGAGCCUUGGUUUUUUG [G42U G57U] here?
Answer: The value was -1.5.

Question: With GACCAAUCUGCCCUCAGAGCUCGAGAACCUCUUCGGAUGCAGAGGAGGCAGGCUUCGGUGGCGCGAUAGUGCCAACGUCCUCAACCUCCAAUGCAUCCCACCACAUGAUGAUGCCUGGAGAGCCUUGGUUUUUUG [A29C C70U A118G] as the variant, how does the “polymerase ribozyme fitness (log ratio)” value read?
Answer: Its value is -2.26.

Question: For GACCAAUCUGCCCUCAGAGCUCGAGAACAUCUUCGGAUGCAGAGGAGGCAGGCUUCGGUGGCUCGAUAGCGCCAACGUCCUCAACCUCCAAUGCAUCCCACCACAUGAUGAUGCCUGAUGAGCCUUGGUUUUUUG [G63U A119U], which “polymerase ribozyme fitness (log ratio)” value is on record?
Answer: Its value is -0.897.

Question: With GACCAAUGUGCCCUCAGAGCUCGAGAACAUCUUCGGAUGCAGAGGAGGCAGGCUUCGGUGGCGCGAUAGCGCCAACGCCCUCAAUCUCCAAUGCAUCCCACCACAUGAUGAUUCCUGAAGAGCCUUGGUUUAUUG [C8G U78C C85U G113U U132A] as the variant, how does the “polymerase ribozyme fitness (log ratio)” value read?
Answer: The value was -2.41.

Question: Which “polymerase ribozyme fitness (log ratio)” value does the source give for GACCAAUCUGCCCUCAGAGCUCGAGAACAUCUUCGGAUGCAGAGGAGGCAGGCUUCGGUGGCCCGAUAGCGCCAACGUCCUCAACCUCCAAUGCAUCUCACCACAUGAUGAUGCCUGAAGAGCCUUGGUUUUUUG [G63C C98U] here?
Answer: The value was -2.15.

Question: For GACCAAUCUGCCCUCAGAGCUCGAGAACAUCUUCGGAUGCAGAGGAGGCAGGCUUCGGUGGCGCGAUAGCGCCAACGUCCUCAACCUCCAAUGCAUCCCACCACAUGAUGAUGCCUGAAGAGCCUUAGGUUUUUG [G127A U129G], which “polymerase ribozyme fitness (log ratio)” value is on record?
Answer: The value was -1.62.

Question: With GACCAAUCUGCCCUGAGAGCUCGAGAAAAUCUUCGGAUGCAGAUGAGGCAGUCUUCGGUGGCGCGAUAUCGCCAACGUCCUCAACCUCCAAUGCAUCCCACCACAUGAUGAUGCCUGAAGAGCCUUGGUUUUUUG [C15G C28A G44U G52U G69U] as the variant, how does the “polymerase ribozyme fitness (log ratio)” value read?
Answer: Its value is -5.21.

Question: Which “polymerase ribozyme fitness (log ratio)” value does the source give for GACCAAUCUGCCCUCAGAGCUCGAGAACAUCUUCGGAUGCAGAGGAAGCAGGCUUCGGUUGCGCGAUAGCGCCAACGUCCUCAACCUCCAAUGCAUCCCAACACAUGAUGAUGCCUGAAGAGCCUUGGUUUUUUG [G47A G60U C101A] here?
Answer: Its value is -0.894.

Question: With GACCAAUCUGCCCUCAGAGCUCGAGAACAUCUUCGGAUGCAGUGGAGGCAGGCUUCGGUGGCGCGAUAGCGCCAACGUCCUCAACCUCCAAUGCAUCCCACCACAUGAUGAUGCCUGAACAGCUUUGGUUUUUUG [A43U G120C C124U] as the variant, how does the “polymerase ribozyme fitness (log ratio)” value read?
Answer: The value was -0.575.

Question: Which “polymerase ribozyme fitness (log ratio)” value does the source give for GACCAAUCUGCCCUCAGAGCUCGAGAACAUCUUCGGAUGCAGAGGUGGCAGGCUUCCGUGGCGCGAUAGCGCCAACGUCCUCAUCCUCCAAUGCAUCCCACCACAUGAUGAUGUCUGAAGAGCCUUGGUUUUUUG [A46U G57C A84U C114U] here?
Answer: The value was -3.16.

Question: With GACCUAUCUGGCCUCUGAGCUCGAGAACAUCUUCGGAUGCAGAGGAGGCAGGCUUCGGUUGCGCGAUAGCGCCAACGUCCUCAACCACCAAUGCAUCCCACCCCAUGAUGAUGCCUGAAGAGCCUUGGUUUUUUG [A5U C11G A16U G60U U87A A103C] as the variant, how does the “polymerase ribozyme fitness (log ratio)” value read?
Answer: The value was -5.47.
